Reference: patent US11034762 (CENTIVAX, dated 2021)

T1: MERS Receptor Binding Domain (RBD) protein (MERS virus, UniProt K9N5Q8 367-606)
T1 construct: also called Middle East Respiratory Syndrome (MERS) virus
T1 sequence: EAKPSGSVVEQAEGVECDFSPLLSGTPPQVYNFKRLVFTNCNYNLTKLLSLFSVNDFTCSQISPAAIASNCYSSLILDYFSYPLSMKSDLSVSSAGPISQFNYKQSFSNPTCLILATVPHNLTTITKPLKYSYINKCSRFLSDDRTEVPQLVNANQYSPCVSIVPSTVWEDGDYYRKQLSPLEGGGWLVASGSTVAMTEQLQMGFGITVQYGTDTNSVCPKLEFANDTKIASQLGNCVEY


Legend:
[1] = biological target: SARS-CoV-2 Receptor Binding Domain (RBD) protein (SARS-CoV-2, UniProt P0DTC2 319-541)
[2] = biological target: T2, SARS-CoV-1 Receptor Binding Domain (RBD) protein (SARS-CoV-1, UniProt P59594 306-527); assay: SPR; clone listed as COV2 only at the 21st table, row 21, column 3
T2 construct: also called SARS1

[3] = biological target: T1, MERS Receptor Binding Domain (RBD) …; assay: as above
[4] = biological target: T2, SARS-CoV-1 Receptor Binding Domain …; assay: SPR; clone listed as COV2 only at the 21st table, row 28, column 3
[5] = biological target: T1, MERS Receptor Binding Domain (RBD) …; assay: as above
[6] = biological target: T2, SARS-CoV-1 Receptor Binding Domain …; assay: SPR; clone listed as COV2 only at the 21st table, row 26, column 3
[7] = biological target: T1, MERS Receptor Binding Domain (RBD) …; assay: as above
[8] = biological target: T2, SARS-CoV-1 Receptor Binding Domain …; assay: SPR; clone listed as COV2 only at the 21st table, row 32, column 3
[9] = biological target: T1, MERS Receptor Binding Domain (RBD) …; assay: as above
[10] = biological target: T2, SARS-CoV-1 Receptor Binding Domain …; assay: SPR; clone listed as COV2 only at the 21st table, row 33, column 3
[11] = biological target: T1, MERS Receptor Binding Domain (RBD) …; assay: as above
[12] = biological target: T2, SARS-CoV-1 Receptor Binding Domain …; assay: SPR; clone listed as COV2 only at the 21st table, row 29, column 3
[13] = biological target: T1, MERS Receptor Binding Domain (RBD) …; assay: as above
[14] = biological target: T2, SARS-CoV-1 Receptor Binding Domain …; assay: SPR; clone listed as COV2 only at the 21st table, row 30, column 3
[15] = biological target: T1, MERS Receptor Binding Domain (RBD) …; assay: as above
[16] = biological target: T2, SARS-CoV-1 Receptor Binding Domain …; assay: SPR; clone listed as COV2 only at the 21st table, row 25, column 3
[17] = biological target: T1, MERS Receptor Binding Domain (RBD) …; assay: as above
[18] = biological target: T2, SARS-CoV-1 Receptor Binding Domain …; assay: SPR; clone listed as COV2 only at the 21st table, row 24, column 3
[19] = biological target: T1, MERS Receptor Binding Domain (RBD) …; assay: as above
[20] = biological target: T2, SARS-CoV-1 Receptor Binding Domain …; assay: SPR; clone listed as COV2 only at the 21st table, row 23, column 3
[21] = biological target: T1, MERS Receptor Binding Domain (RBD) …; assay: as above
[22] = biological target: T2, SARS-CoV-1 Receptor Binding Domain …; assay: SPR; clone listed as COV2 only at the 21st table, row 7, column 3
[23] = biological target: T1, MERS Receptor Binding Domain (RBD) …; assay: as above
[24] = biological target: T2, SARS-CoV-1 Receptor Binding Domain …; assay: SPR; clone listed as COV2 only at the 21st table, row 27, column 3
[25] = biological target: T1, MERS Receptor Binding Domain (RBD) …; assay: as above
[26] = biological target: T2, SARS-CoV-1 Receptor Binding Domain …; assay: SPR; clone listed as COV2 only at the 21st table, row 22, column 3
[27] = biological target: T1, MERS Receptor Binding Domain (RBD) …; assay: as above

Binder	Kd [1]	koff [1]	kon [1]	also measured
COVID19_P10_G03 (scFv, V domains shown) VH: QVQLVQSGAEVKKPGSSVKVSCKASGGTFSNSSINWVRQAPGQGLEWMGRINPNSGGTNYAQKFQGRVTITADESTSTAYMELSSLRSEDTAVYYCAGGSGISTPMDVWGQGTLVTVSS VL: not shown	40.4 nM	0.00177 s⁻¹	43800 M⁻¹ s⁻¹	binding result [2]: no binding (tested: up to 300 nM); binding result [3]: no binding (tested: up to 300 nM)
COVID19_P09_G02 (scFv, V domains shown) VH: QVQLVQSGAEVKKPGSSVKVSCKASGGTFSSYAISWVRQAPGQGLEWMGIIYPGDSTTNYSQKFQGRVTITADESTSTAYMELSSLRSEDTAVYYCAGHWGISTPMDVWGQGTLVTVSS VL: not shown	1.92 nM	0.000262 s⁻¹	136000 M⁻¹ s⁻¹	binding result [4]: no binding (tested: up to 300 nM); binding result [5]: no binding (tested: up to 300 nM)
COVID19_P09_C09 (scFv, V domains shown) VH: QVQLVQSGAEVKKPGSSVKVSCKASGGTFSSYAISWVRQAPGQGLEWMGIIDPSGGSTSYAQQFQGRVTITADESTSTAYMELSSLRSEDTAVYYCAGGSGISTPMDVWGQGTLVTVSS VL: not shown	0.99 nM	0.000261 s⁻¹	264000 M⁻¹ s⁻¹	binding result [6]: no binding (tested: up to 300 nM); binding result [7]: no binding (tested: up to 300 nM)
COVID19_P21_F04 (scFv, V domains shown) VH: QVQLVQSGAEVKKPGSSVKVSCKASGGTFSSYAISWVRQAPGQGLEWMGQINPSGDSTRYAQKFQGRVTITADESTSTAYMELSSLRSEDTAVYYCAGGSGISTPMDVWGQGTLVTVSS VL: not shown	8.81 nM	0.00037 s⁻¹	41900 M⁻¹ s⁻¹	binding result [8]: no binding (tested: up to 300 nM); binding result [9]: no binding (tested: up to 300 nM)
COVID19_P21_A12 (scFv, V domains shown) VH: QVQLVQSGAEVKKPGSSVKVSCKASGGTFSSYAISWVRQAPGQGLEWMGSVIPVFGRPNYAQKFQGRVTITADESTSTAYMELSSLRSEDTAVYYCAGEWGISTPMDVWGQGTLVTVSS VL: not shown	6.01 nM	0.000911 s⁻¹	152000 M⁻¹ s⁻¹	binding result [10]: no binding (tested: up to 300 nM); binding result [11]: no binding (tested: up to 300 nM)
COVID19_P09_E05 (scFv, V domains shown) VH: QVQLVQSGAEVKKPGSSVKVSCKASGGTFSSYAISWVRQAPGQGLEWMGIIYPGDSTTRYSQKFQGRVTITADESTSTAYMELSSLRSEDTAVYYCYSGSGISTPMDVWGQGTLVTVSS VL: not shown	0.2 nM	5.7e-05 s⁻¹	305000 M⁻¹ s⁻¹	binding result [12]: no binding (tested: up to 300 nM); binding result [13]: no binding (tested: up to 300 nM)
COVID19_P10_B06 (scFv, V domains shown) VH: QVQLVQSGAEVKKPGSSVKVSCKASGGTFSSYAISWVRQAPGQGLEWMGIIYPGDSTTRYSQKFQGRVTITADESTSTAYMELSSLRSEDTAVYYCYSGSGISTPMDVWGQGTLVTVSS VL: not shown	0.29 nM	5.7e-05 s⁻¹	200000 M⁻¹ s⁻¹	binding result [14]: no binding (tested: up to 300 nM); binding result [15]: no binding (tested: up to 300 nM)
COVID19_P09_B07 (scFv, V domains shown) VH: QVQLVQSGAEVKKPGSSVKVSCKASGGTFSSYAISWVRQAPGQGLEWMGGIIPTLGTANYAQKFQGRVTITADESTSTAYMELSSLRSEDTAVYYCAGSWGISTPMDVWGQGTLVTVSS VL: not shown	3.66 nM	0.000533 s⁻¹	146000 M⁻¹ s⁻¹	binding result [16]: no binding (tested: up to 300 nM); binding result [17]: no binding (tested: up to 300 nM)
COVID19_P09_H08 (scFv, V domains shown) VH: QVQLVQSGAEVKKPGSSVKVSCKASGGTFSSYAISWVRQAPGQGLEWMGGIIPIFGTTNYAQKFQGRVTITADESTSTAYMELSSLRSEDTAVYYCAGEWGISTPMDVWGQGTLVTVSS VL: not shown	3.25 nM	0.00039 s⁻¹	120000 M⁻¹ s⁻¹	binding result [18]: no binding (tested: up to 300 nM); binding result [19]: no binding (tested: up to 300 nM)
COVID19_P22_F07 (scFv, V domains shown) VH: QVQLVQSGAEVKKPGSSVKVSCKASGGTFSSYAISWVRQAPGQGLEWMGGIIPIFGSTASYAQKFQGRVTITADESTSTAYMELSSLRSEDTAVYYCAGEWGISTPMDVWGQGTLVTVSS VL: not shown	6.58 nM	0.00041 s⁻¹	63000 M⁻¹ s⁻¹	binding result [20]: no binding (tested: up to 300 nM); binding result [21]: no binding (tested: up to 300 nM)
COVID19_P22_E06 (scFv, V domains shown) VH: QVQLVQSGAEVKKPGSSVKVSCKASGGGFITYWIGWVRQAPGQGLEWMGIIYPGDSETRYSQKFQGRVTITADESTSTAYMELSSLRSEDTAVYYCAGGSGISSDMDVWGQGTLVTVSS VL: not shown	42.7 nM	0.0057 s⁻¹	130000 M⁻¹ s⁻¹	binding result [22]: no binding (tested: up to 300 nM); binding result [23]: no binding (tested: up to 300 nM)
COVID19_P21_F11 (scFv, V domains shown) VH: QVQLVQSGAEVKKPGSSVKVSCKASGGTFSSYAISWVRQAPGQGLEWMGIIYPGDSTARYSQKFQGRVTITADESTSTAYMELSSLRSEDTAVYYCAGGSGISTLYDVWGQGTLVTVSS VL: not shown	≤ 1.1 nM	≤ 5.7e-05 s⁻¹	52300 M⁻¹ s⁻¹	binding result [24]: no binding (tested: up to 300 nM); binding result [25]: no binding (tested: up to 300 nM)
COVID19_P22_E12 (scFv, V domains shown) VH: QVQLVQSGAEVKKPGSSVKVSCKASGGTFSSYAINWVRQAPGQGLEWMGGIIPVLHTVDYAQRLQGRVTITADESTSTAYMELSSLRSEDTAVYYCAGEWGISTPMDVWGQGTLVTVSS VL: not shown	44 nM	0.0089 s⁻¹	200000 M⁻¹ s⁻¹	binding result [26]: no binding (tested: up to 300 nM); binding result [27]: no binding (tested: up to 300 nM)
